The supplement of paper PMC12764529
± gives the half width of the 95% confidence interval.

Experiments:
[1] = folding stability dG unfold from trypsin proteolysis; higher = more stable
Procedure, shortened: (§1)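 How resistant each design was to proteolysis was captured as K50, inferred by Bayesian fitting of sequencing counts. Unfolding free energy was then derived relative to a sequence-predicted unfolded-state K50 and a shared folded-state K50, per protease or combined. Digestion used trypsin and chymotrypsin at 11 threefold-diluted concentrations plus a no-protease condition, on mini-proteins under 80 residues without cysteine in a PA-tagged cDNA display construct. Designs were kept only when AlphaFold2 dimer inter-PAE was above 15.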

[2] = folding stability dG unfold from chymotrypsin proteolysis; higher = more stable
Procedure, shortened: as §1

[3] = folding stability dG unfold (combined trypsin and chymotrypsin); higher = more stable
Procedure, shortened: as §1

Sequence: SAGGSAKKKKVTITIEVVKNKETGEYLVRIKIKVDGKEYEIVMSEDELKALIDAGVKIEKIEVYPRSAGGSA [r15_783_TrROS_Hall]
- folding stability dG unfold [1]: 1.6 ± 0.017 kcal/mol
- folding stability dG unfold [2]: 2.99 ± 0.082 kcal/mol
- folding stability dG unfold [3]: 2.59 ± 0.1 kcal/mol

Sequence: SAGGSAKKKVTITVEKKGDKYLVTIEVDGKTVVIEVPKDTTIEEIAAALPPGAKIKEIKVVKAEELSAGGSA [r15_1058_TrROS_Hall]
- folding stability dG unfold [1]: 0.716 ± 0.034 kcal/mol
- folding stability dG unfold [2]: 1.33 ± 0.031 kcal/mol
- folding stability dG unfold [3]: 1.16 ± 0.067 kcal/mol

Sequence: SAGGSAKKLPAEAVAKELAERLSKELGLTIKRVEVEVIDPEKGLVRVTVVYETPYGYLKREILLPVSAGGSA [r15_32_TrMRF]
- folding stability dG unfold [1]: 1.83 ± 0.026 kcal/mol
- folding stability dG unfold [2]: 3.825 ± 0.033 kcal/mol
- folding stability dG unfold [3]: 3.31 ± 0.1 kcal/mol

Sequence: SAGGSAKKPKWIPIKIKLPGSLEEAREWAEEIAKWLAKQNGDIKIDAIKYERDPNGHVEVTIQVRVSAGGSA [r15_718_TrROS]
- folding stability dG unfold [1]: 2.36 ± 0.066 kcal/mol
- folding stability dG unfold [2]: 3.83 ± 0.059 kcal/mol
- folding stability dG unfold [3]: 3.36 ± 0.086 kcal/mol

Sequence: SAGGSAKKTLKIKVKTPKGGLKTIEIPDSVKKIDIIPGKDYVKIIIYNPKTKKKIELPPFKVIEISSAGGSA [r15_133_TrMRF]
- folding stability dG unfold [1]: 1.26 ± 0.047 kcal/mol
- folding stability dG unfold [2]: 2.01 ± 0.031 kcal/mol
- folding stability dG unfold [3]: 1.79 ± 0.086 kcal/mol

Sequence: SAGGSAKKYIVLAKIKEVKVTKTYKTKNGKKVKVTVKVEIKVEPVKVFKIKKDKNGNWKIEPGEVLSAGGSA [r15_162_TrROS_Hall]
- folding stability dG unfold [1]: 2.96 ± 0.15 kcal/mol
- folding stability dG unfold [2]: 2.88 ± 0.14 kcal/mol
- folding stability dG unfold [3]: 3.14 ± 0.28 kcal/mol

Sequence: SAGGSAKMKITVEKNEDGELYVLIEVDSVEELEEALKKLPGIEKVEVEVFVDEETKRVYILVRVKPSAGGSA [r15_344_TrROS_Hall]
- folding stability dG unfold [1]: 2.36 ± 0.071 kcal/mol
- folding stability dG unfold [2]: 3.62 ± 0.045 kcal/mol
- folding stability dG unfold [3]: 3.26 ± 0.064 kcal/mol

Sequence: SAGGSAKPEKVIVLEIEIEMTPEEVKKLVEELLKEKFGVEIERIEVEVERLPDGTLKVRVRVVIRESAGGSA [r15_138_TrROS_Hall]
- folding stability dG unfold [1]: 3.31 ± 0.13 kcal/mol
- folding stability dG unfold [2]: 2.94 ± 0.12 kcal/mol
- folding stability dG unfold [3]: 3.17 ± 0.084 kcal/mol

Sequence: SAGGSAKPKIEIEVEKLEGVKEGDTIEVKIKFPNGFIIKIEAKVKRVDGKLVIEVTKVEVIPKEDLSAGGSA [r15_636_TrROS_Hall]
- folding stability dG unfold [1]: 2.7 ± 0.14 kcal/mol
- folding stability dG unfold [2]: 3.17 ± 0.2 kcal/mol
- folding stability dG unfold [3]: 3.16 ± 0.3 kcal/mol

Sequence: SAGGSAKPKITITVTYDKETNTVTVTITFPDGTTLTITVEAETEEEAKKAAKKLVEELLKKLEELESAGGSA [r15_477_TrROS_Hall]
- folding stability dG unfold [1]: 3.46 ± 0.27 kcal/mol
- folding stability dG unfold [2]: 3.4 ± 0.2 kcal/mol
- folding stability dG unfold [3]: 3.52 ± 0.23 kcal/mol

Sequence: SAGGSAKPVIVKIHFPNMKPEKILELAKEFGAVPLKMDPNKGVAIVLATEEKVEEIAAKGNFKIEASAGGSA [r15_731_TrMRF]
- folding stability dG unfold [1]: 0.736 ± 0.043 kcal/mol
- folding stability dG unfold [2]: 0.205 ± 0.39 kcal/mol
- folding stability dG unfold [3]: 0.515 ± 0.26 kcal/mol

Sequence: SAGGSAKPVMVRIKFPNMPPEKLQDAFQEYGMQPQNMDPNKGEMIIMIPWEAAEEIQDKNGFKIEISAGGSA [r15_731_TrROS]
- folding stability dG unfold [1]: -0.489 ± 0.16 kcal/mol
- folding stability dG unfold [2]: 0.8 ± 0.17 kcal/mol
- folding stability dG unfold [3]: 0.323 ± 0.24 kcal/mol

Sequence: SAGGSAKTITIYAPDLPLSEAIETLERLIKELGLTPVSVSVSYNPETGTVTITVTLPNGDTLTLHVSAGGSA [r15_958_TrMRF]
- folding stability dG unfold [1]: 2.18 ± 0.058 kcal/mol
- folding stability dG unfold [2]: 3.37 ± 0.046 kcal/mol
- folding stability dG unfold [3]: 2.99 ± 0.079 kcal/mol

Sequence: SAGGSAKTKVIEIEIDLSPEEIEELAKKLKEEGKVEEVKVEYDEKTGKVKVTVVVRDKNGEWKKLSSAGGSA [r15_177_TrROS_Hall]
- folding stability dG unfold [1]: 0.854 ± 0.066 kcal/mol
- folding stability dG unfold [2]: -0.0755 ± 0.48 kcal/mol
- folding stability dG unfold [3]: 0.556 ± 0.15 kcal/mol

Sequence: SAGGSAKTVSIWIPDDLPNMPIEELIKEVMKAFPPGDEIKDIDVEPWPNGGYMYTFTVNGKEVIIWSAGGSA [r15_451_TrROS]
- folding stability dG unfold [1]: 1.29 ± 0.043 kcal/mol
- folding stability dG unfold [2]: 1.93 ± 0.1 kcal/mol
- folding stability dG unfold [3]: 1.78 ± 0.17 kcal/mol

Sequence: SAGGSAKVIVEELPDGSIKIYFPETGAVIVLNPETGEAVVFVNPKKKNNEPPSLDDVLKAAKEALGSAGGSA [r15_735_TrMRF]
- folding stability dG unfold [1]: 0.413 ± 0.041 kcal/mol
- folding stability dG unfold [2]: 1.6 ± 0.019 kcal/mol
- folding stability dG unfold [3]: 1.28 ± 0.063 kcal/mol

Sequence: SAGGSAKVKIEFFQMPPGGNPRDMQKKAQDKGDIFIIVNKPGWMIVITADDPEDANTIAKEILEEFSAGGSA [r15_546_TrROS]
- folding stability dG unfold [1]: 0.735 ± 0.086 kcal/mol
- folding stability dG unfold [2]: 1.08 ± 0.11 kcal/mol
- folding stability dG unfold [3]: 0.954 ± 0.092 kcal/mol
